Measurements as given in patent US20250361312A1 (INVOX PHARMA, published 2025).
Where a chain is given by its changes, count along the chain named.

Tests used:
Assay in all cases: SPR (Biacore T200), receptor on CM5 chip
human TNFRI = molecular target: T1, human TNFRI (human, UniProt P19438 30-211, limits assumed)
T1 construct: Amine-coupled to a CM5 chip
T1 sequence (looked up): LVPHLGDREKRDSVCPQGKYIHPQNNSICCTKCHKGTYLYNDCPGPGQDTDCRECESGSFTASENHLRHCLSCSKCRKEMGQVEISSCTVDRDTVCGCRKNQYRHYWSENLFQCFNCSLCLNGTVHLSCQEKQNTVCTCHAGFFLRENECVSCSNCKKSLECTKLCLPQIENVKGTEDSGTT

human TNFRII = molecular target: T2, human TNFRII (human, UniProt P20333 23-257, limits assumed)
T2 construct: Amine-coupled to a CM5 chip
T2 sequence (looked up): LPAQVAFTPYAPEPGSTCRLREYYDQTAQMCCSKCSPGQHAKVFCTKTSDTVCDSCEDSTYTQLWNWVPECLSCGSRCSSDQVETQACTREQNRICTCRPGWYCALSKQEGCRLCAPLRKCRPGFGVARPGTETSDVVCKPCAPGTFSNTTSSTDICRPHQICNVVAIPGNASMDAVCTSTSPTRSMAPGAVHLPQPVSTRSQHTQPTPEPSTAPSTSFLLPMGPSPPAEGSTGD

human NGFR = molecular target: T3, human NGFR (human, UniProt P08138 29-250, limits assumed)
T3 construct: Amine-coupled to a CM5 chip
T3 sequence (looked up): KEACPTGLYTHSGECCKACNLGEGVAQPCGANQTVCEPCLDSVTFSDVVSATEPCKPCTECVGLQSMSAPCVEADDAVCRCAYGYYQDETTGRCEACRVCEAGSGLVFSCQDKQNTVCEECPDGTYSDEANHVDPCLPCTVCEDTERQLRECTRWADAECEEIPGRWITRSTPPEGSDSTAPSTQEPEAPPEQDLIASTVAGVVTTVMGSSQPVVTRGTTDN

human CD137 = molecular target: T4, human CD137 (human, UniProt Q07011 24-186, limits assumed)
T4 construct: Amine-coupled to a CM5 chip; also called 4-1BB

human CD40 = molecular target: T5, human CD40 (human, UniProt P25942 21-193, limits assumed)
T5 construct: Amine-coupled to a CM5 chip
T5 sequence (P25942 21-193 limits assumed): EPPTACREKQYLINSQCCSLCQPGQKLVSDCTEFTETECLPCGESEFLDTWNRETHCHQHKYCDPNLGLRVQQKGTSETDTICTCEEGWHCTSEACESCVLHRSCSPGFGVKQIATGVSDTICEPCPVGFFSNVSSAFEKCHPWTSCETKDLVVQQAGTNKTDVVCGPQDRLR

Measured: binding result

B1: FS20-11-134AA/4420 (bispecific antibody, human IgG1, kappa, L234A L235A)
heavy: EVKLDETGGGLVQPGRPMKLSCVASGFTFSDYWMNWVRQSPEKGLEWVAQIRNKPYNYETYYSDSVKGRFTISRDDSKSSVYLQMNNLRVEDMGIYYCTGSYYGMDYWGQGTSVTVSSASTKGPSVFPLAPSSKSTSGGTAALGCLVKDYFPEPVTVSWNSGALTSGVHTFPAVLQSSGLYSLSSVVTVPSSSLGTQTYICNVNHKPSNTKVDKKVEPKSCDKTHTCPPCPAPEAAGGPSVFLFPPKPKDTLMISRTPEVTCVVVDVSHEDPEVKFNWYVDGVEVHNAKTKPREEQYNSTYRVVSVLTVLHQDWLNGKEYKCKVSNKALPAPIEKTISKAKGQPREPQVYTLPPSREEDDNDVSLTCLVKGFYPSDIAVEWESNGIPIGPYKTTPPVLDSDGSFFLYSKLTVDKSRWWKHYVEEHPFLCSVMHEALHNHYTQKSLSLSPG
light: DVVMTQTPLSLPVSLGDQASISCRSSQSLVHSNGNTYLRWYLQKPGQSPKVLIYKVSNRFSGVPDRFSGSGSGTDFTLKISRVEAEDLGVYFCSQSTHVPWTFGGGTKLEIKRTVAAPSVFIFPPSDEQLKSGTASVVCLLNNFYPREAKVQWKVDNALQSGNSQESVTEQDSKDSTYSLSSTLTLSKADYEKHKVYACEVTHQGLSSPVTKSFNRGEC
notes: Human IgG1 with anti-FITC 4420 Fab and LALA; The OX40 site is in the CH3 domain; also called FS20-11-134 Fcab in mock (4420 LALA) mAb^2 format
no binding (tested: 1 µM): all assays above

B2: FS20-22-41AA/4420 (bispecific antibody, human IgG1, kappa, L234A L235A)
heavy: EVKLDETGGGLVQPGRPMKLSCVASGFTFSDYWMNWVRQSPEKGLEWVAQIRNKPYNYETYYSDSVKGRFTISRDDSKSSVYLQMNNLRVEDMGIYYCTGSYYGMDYWGQGTSVTVSSASTKGPSVFPLAPSSKSTSGGTAALGCLVKDYFPEPVTVSWNSGALTSGVHTFPAVLQSSGLYSLSSVVTVPSSSLGTQTYICNVNHKPSNTKVDKKVEPKSCDKTHTCPPCPAPEAAGGPSVFLFPPKPKDTLMISRTPEVTCVVVDVSHEDPEVKFNWYVDGVEVHNAKTKPREEQYNSTYRVVSVLTVLHQDWLNGKEYKCKVSNKALPAPIEKTISKAKGQPREPQVYTLPPSRDEYWDQEVSLTCLVKGFYPSDIAVEWESNGDEQFAYKTTPPVLDSDGSFFLYSKLTVDQYRWNPGDYFSCSVMHEALHNHYTQKSLSLSPG
light: B1 light
notes: Human IgG1 with anti-FITC 4420 Fab and LALA; The OX40 site is in the CH3 domain; also called FS20-22-41 Fcab in mock (4420 LALA) mAb^2 format
no binding (tested: 1 µM): all assays above

B3: FS20-31-102AA/4420 (bispecific antibody, human IgG1, kappa, L234A L235A)
heavy: EVKLDETGGGLVQPGRPMKLSCVASGFTFSDYWMNWVRQSPEKGLEWVAQIRNKPYNYETYYSDSVKGRFTISRDDSKSSVYLQMNNLRVEDMGIYYCTGSYYGMDYWGQGTSVTVSSASTKGPSVFPLAPSSKSTSGGTAALGCLVKDYFPEPVTVSWNSGALTSGVHTFPAVLQSSGLYSLSSVVTVPSSSLGTQTYICNVNHKPSNTKVDKKVEPKSCDKTHTCPPCPAPEAAGGPSVFLFPPKPKDTLMISRTPEVTCVVVDVSHEDPEVKFNWYVDGVEVHNAKTKPREEQYNSTYRVVSVLTVLHQDWLNGKEYKCKVSNKALPAPIEKTISKAKGQPREPQVYTLPPSRDEWASGEVSLTCLVKGFYPSDIAVEWESNGQPEVDYKTTPPVLDSDGSFFLYSKLTVPYWRWGVPRTFSCSVMHEALHNHYTQKSLSLSPG
light: B1 light
notes: Human IgG1 with anti-FITC 4420 Fab and LALA; The OX40 site is in the CH3 domain; also called FS20-31-102 Fcab in mock (4420 LALA) mAb^2 format
no binding (tested: 1 µM): all assays above

B4: FS20-11-131AA/4420 (bispecific antibody, human IgG1, kappa, L234A L235A)
heavy: B1 heavy with S415N, E423D
light: B1 light
notes: Human IgG1 with anti-FITC 4420 Fab and LALA; The OX40 site is in the CH3 domain; also called FS20-11-131 Fcab in mock (4420 LALA) mAb^2 format
no binding (tested: 1 µM): all assays above

B5: FS20-22-47AA/4420 (bispecific antibody, human IgG1, kappa, L234A L235A)
heavy: B2 heavy with N419S
light: B1 light
notes: Human IgG1 with anti-FITC 4420 Fab and LALA; The OX40 site is in the CH3 domain; also called FS20-22-47 Fcab in mock (4420 LALA) mAb^2 format
no binding (tested: 1 µM): all assays above

B6: FS20-22-85AA/4420 (bispecific antibody, human IgG1, kappa, L234A L235A)
heavy: B2 heavy with V413L, G421F, Y423D
light: B1 light
notes: Human IgG1 with anti-FITC 4420 Fab and LALA; The OX40 site is in the CH3 domain; also called FS20-22-85 Fcab in mock (4420 LALA) mAb^2 format
no binding (tested: 1 µM): all assays above

B7: FS20-22-38AA/4420 (bispecific antibody, human IgG1, kappa, L234A L235A)
heavy: B2 heavy with D387A, Q389K, F390Y, A391Q
light: B1 light
notes: Human IgG1 with anti-FITC 4420 Fab and LALA; The OX40 site is in the CH3 domain; also called FS20-22-38 Fcab in mock (4420 LALA) mAb^2 format
no binding (tested: 1 µM): all assays above

B8: FS20-22-49AA/4420 (bispecific antibody, human IgG1, kappa, L234A L235A)
heavy: B2 heavy with G421A
light: B1 light
notes: Human IgG1 with anti-FITC 4420 Fab and LALA; The OX40 site is in the CH3 domain; also called FS20-22-49 Fcab in mock (4420 LALA) mAb^2 format; FS20-22-49/4420 (LALA)
no binding (tested: 1 µM): all assays above

B9: FS20-31-108AA/4420 (bispecific antibody, human IgG1, kappa, L234A L235A)
heavy: B3 heavy with Q387E, P388K, V390I, V420A, P421K
light: B1 light
notes: Human IgG1 with anti-FITC 4420 Fab and LALA; The OX40 site is in the CH3 domain; also called FS20-31-108 Fcab in mock (4420 LALA) mAb^2 format
no binding (tested: 1 µM): all assays above

B10: FS20-11-127AA/4420 (bispecific antibody, human IgG1, kappa, L234A L235A)
heavy: B1 heavy with K419R
light: B1 light
notes: Human IgG1 with anti-FITC 4420 Fab and LALA; The OX40 site is in the CH3 domain
no binding (tested: 1 µM): all assays above

B11: FS20-31-94AA/4420 (bispecific antibody, human IgG1, kappa, L234A L235A)
heavy: B3 heavy with A360E, S361H, Q387I, P388R, V390H, V420G, R422G
light: B1 light
notes: Human IgG1 with anti-FITC 4420 Fab and LALA; also called FS20-31-94 Fcab in mock (4420 LALA) mAb^2 format
no binding (tested: 1 µM): all assays above

B12: FS20-31-115AA/4420 (bispecific antibody, human IgG1, kappa, L234A L235A)
heavy: B3 heavy with Q387E, P388Q, V390F, V420A, P421K
light: B1 light
notes: Human IgG1 with anti-FITC 4420 Fab and LALA; The OX40 site is in the CH3 domain; also called FS20-31-115 Fcab in mock (4420 LALA) mAb^2 format
no binding (tested: 1 µM): all assays above
